From the Immune Epitope Database (IEDB) come the findings set out here.

Where only a bound is given, the exact number is not on record here.

Targets include HLA-A*68:01; HLA-A*11:01; HLA-A*03:01; HLA-A*33:01; HLA-A*31:01.
Holding throughout (assay): IEDB peptide-MHC binding, purified MHC/competitive/radioactivity; filed as Kd, often an IC50 or EC50 that approximates it; ≥ and ≤ were set here for values at or beyond the usual limits of such assays
The mark [1] stands for this setting: source organism: Vaccinia virus WR.
[2] abbreviates: source organism: Mammarenavirus lassaense.
[3] abbreviates: source organism: SARS coronavirus Tor2.
The mark [4] stands for this setting: source organism: Lassa virus Josiah.
[5] abbreviates: source organism: Lymphocytic choriomeningitis virus (strain Armstrong).
Where [6] appears, read: source organism: Mammarenavirus whitewaterense.
The mark [7] stands for this setting: source organism: Mammarenavirus brazilense.

Consider PVIVVPVIDR, for which the Kd (as a rule, the equilibrium constant for the complex coming apart) is 16.7 nM in the assay with HLA-A*68:01 (setting [1]); at least 21600 nM in the assay with HLA-A*11:01 (setting [1]); 4820 nM with HLA-A*03:01 (setting [1]); 9180 nM with HLA-A*33:01 (setting [1]); 13200 nM with HLA-A*31:01 (setting [1]).

As for QCWRSFLNK, the Kd worked out at 13600 nM with HLA-A*68:01 (setting [2]); 4950 nM in the assay with HLA-A*11:01 (setting [2]); 567 nM with HLA-A*03:01 (setting [2]); 743 nM in the assay with HLA-A*33:01 (setting [2]); 880 nM in the assay with HLA-A*31:01 (setting [2]).

Take QQLRVESSSK: the Kd came out at 1950 nM in the assay with HLA-A*68:01 (setting [3]); 721 nM with HLA-A*11:01 (setting [3]); 588 nM with HLA-A*03:01 (setting [3]); 1260 nM with HLA-A*33:01 (setting [3]); 435 nM with HLA-A*31:01 (setting [3]).

In the case of QSLCFLLTQK, the Kd with HLA-A*68:01 (setting [3]) worked out at 63.8 nM; with HLA-A*11:01 (setting [3]) it was 10.8 nM; with HLA-A*03:01 (setting [3]), 6.2 nM; in the assay with HLA-A*33:01 (setting [3]), 1470 nM; with HLA-A*31:01 (setting [3]) it was 54.2 nM.

Consider QTTVNTLSER, for which the Kd with HLA-A*68:01 (setting [1]) worked out at 5.22 nM; with HLA-A*11:01 (setting [1]), 76.8 nM; with HLA-A*03:01 (setting [1]) it was 1520 nM; in the assay with HLA-A*33:01 (setting [1]), 155 nM; with HLA-A*31:01 (setting [1]) it was 21.7 nM.

Consider SAFNDDGIY, for which the Kd was 1860 nM in the assay with HLA-A*68:01 (setting [1]); 14000 nM with HLA-A*11:01 (setting [1]); at least 78000 nM in the assay with HLA-A*03:01 (setting [1]); at least 77700 nM with HLA-A*33:01 (setting [1]); 9580 nM with HLA-A*31:01 (setting [1]).

SAVFKDSFLR: the Kd in the assay with HLA-A*68:01 (setting [1]) was found to be 18.2 nM; with HLA-A*11:01 (setting [1]), 45.9 nM; with HLA-A*03:01 (setting [1]), 664 nM; in the assay with HLA-A*33:01 (setting [1]), 372 nM; with HLA-A*31:01 (setting [1]) it was 23.9 nM.

Consider SAVVDNKLK, for which the Kd with HLA-A*68:01 (setting [1]) is 580 nM; with HLA-A*11:01 (setting [1]), 508 nM; in the assay with HLA-A*03:01 (setting [1]), at least 23600 nM; with HLA-A*33:01 (setting [1]), at least 77700 nM; in the assay with HLA-A*31:01 (setting [1]), at least 58900 nM.

As for SCPKPHRLNH, the Kd with HLA-A*68:01 (setting [4]) was at least 70100 nM; in the assay with HLA-A*11:01 (setting [4]) it was at least 69700 nM; in the assay with HLA-A*03:01 (setting [4]), at least 21300 nM; with HLA-A*33:01 (setting [4]) it was at least 34300 nM; with HLA-A*31:01 (setting [4]), at least 38500 nM.

Regarding SCQGSDDIR, the Kd is at least 21800 nM in the assay with HLA-A*68:01 (setting [5]); at least 77900 nM in the assay with HLA-A*11:01 (setting [5]); at least 78000 nM in the assay with HLA-A*03:01 (setting [5]); at least 51400 nM with HLA-A*33:01 (setting [5]); at least 33900 nM in the assay with HLA-A*31:01 (setting [5]).

On to SIYSRPKIK, for which the Kd is 398 nM with HLA-A*68:01 (setting [1]); 6.62 nM with HLA-A*11:01 (setting [1]); 2.67 nM in the assay with HLA-A*03:01 (setting [1]); at least 37900 nM with HLA-A*33:01 (setting [1]); 4890 nM with HLA-A*31:01 (setting [1]).

Regarding SLCFLLTQK, the Kd with HLA-A*68:01 (setting [3]) worked out at 1200 nM; with HLA-A*11:01 (setting [3]), 22.7 nM; with HLA-A*03:01 (setting [3]), 25.6 nM; with HLA-A*33:01 (setting [3]), 5560 nM; in the assay with HLA-A*31:01 (setting [3]), 231 nM.

Regarding SLLTNDTTWI, the Kd is at least 70100 nM in the assay with HLA-A*68:01 (setting [6]); at least 69700 nM with HLA-A*11:01 (setting [6]); at least 70000 nM in the assay with HLA-A*03:01 (setting [6]); at least 70000 nM with HLA-A*33:01 (setting [6]); 17000 nM with HLA-A*31:01 (setting [6]).

As for SQIQLSLLK, the Kd in the assay with HLA-A*68:01 (setting [3]) is 6270 nM; with HLA-A*11:01 (setting [3]), 29.2 nM; in the assay with HLA-A*03:01 (setting [3]) it was 892 nM; with HLA-A*33:01 (setting [3]), at least 77700 nM; with HLA-A*31:01 (setting [3]) it was 18000 nM.

For the sequence SSFIMRNFLR, the Kd with HLA-A*68:01 (setting [1]) amounted to 13.6 nM; in the assay with HLA-A*11:01 (setting [1]), 8.89 nM; in the assay with HLA-A*03:01 (setting [1]), 2100 nM; with HLA-A*33:01 (setting [1]), 870 nM; with HLA-A*31:01 (setting [1]), 1.3 nM.

Turning to SVTLDFTKFH, the Kd was 18400 nM with HLA-A*68:01 (setting [7]); 7100 nM with HLA-A*11:01 (setting [7]); 7520 nM in the assay with HLA-A*03:01 (setting [7]); 9440 nM in the assay with HLA-A*33:01 (setting [7]); 10100 nM with HLA-A*31:01 (setting [7]).

Consider TILLSDKGK, for which the Kd is 198 nM with HLA-A*68:01 (setting [1]); 81.2 nM in the assay with HLA-A*11:01 (setting [1]); 1540 nM with HLA-A*03:01 (setting [1]); at least 44300 nM with HLA-A*33:01 (setting [1]); 7390 nM with HLA-A*31:01 (setting [1]).

As to TLAVPYNMR, the Kd was determined as 9.36 nM with HLA-A*68:01 (setting [3]); 3230 nM in the assay with HLA-A*11:01 (setting [3]); 995 nM in the assay with HLA-A*03:01 (setting [3]); 126 nM in the assay with HLA-A*33:01 (setting [3]); 152 nM with HLA-A*31:01 (setting [3]).

TLDESFLGR: the Kd with HLA-A*68:01 (setting [3]) is 947 nM; with HLA-A*11:01 (setting [3]), 669 nM; in the assay with HLA-A*03:01 (setting [3]), 1430 nM; with HLA-A*33:01 (setting [3]), 1120 nM; in the assay with HLA-A*31:01 (setting [3]), 841 nM.

Consider TLSPAHLINK, for which the Kd with HLA-A*68:01 (setting [1]) stood at 120 nM; with HLA-A*11:01 (setting [1]), 1.29 nM; with HLA-A*03:01 (setting [1]), 2.05 nM; with HLA-A*33:01 (setting [1]) it was 11400 nM; in the assay with HLA-A*31:01 (setting [1]), 168 nM.

Turning to TMCTEETKR, the Kd with HLA-A*68:01 (setting [1]) was 121 nM; with HLA-A*11:01 (setting [1]), at least 77900 nM; with HLA-A*03:01 (setting [1]), at least 78000 nM; in the assay with HLA-A*33:01 (setting [1]) it was 12400 nM; with HLA-A*31:01 (setting [1]) it was 2980 nM.

In the case of TTGIGYQPYR, the Kd with HLA-A*68:01 (setting [3]) was 9.5 nM; with HLA-A*11:01 (setting [3]), 1140 nM; with HLA-A*03:01 (setting [3]), 6450 nM; with HLA-A*33:01 (setting [3]) it was 1740 nM; with HLA-A*31:01 (setting [3]), 105 nM.

Take TVKTNLYMK: the Kd came out at 104 nM with HLA-A*68:01 (setting [1]); 16.2 nM in the assay with HLA-A*11:01 (setting [1]); 3680 nM with HLA-A*03:01 (setting [1]); 6320 nM with HLA-A*33:01 (setting [1]); 81.7 nM in the assay with HLA-A*31:01 (setting [1]).
